Residue numbers refer to the chain shown, from its start. Names and notes keep the numbering of the source.
B1: MBP-ATF2(19–100) (domain or fragment)
chain: MSDDKPFLCTAPGCGQRFTNEDHLAVHKHKHEMTLKFGPARNDSVIVADQTPTPTRFLKNCEEVGLFNELASPFENEFKKAS
B2: MBP-c-Jun(1–78) (domain or fragment)
chain: MTAKMETTFYDDALNASFLPSESGPYGYSNPKILKQSMTLNLADPVGSLKPHLRAKNSDLLTSPDVGLLKLASPELER
B3: MBP-c-Jun(1–78) K35E (domain or fragment)
chain: B2 chain with K35E
B4: ATF2(19–58)-His6 (MBP removed, for ITC) (domain or fragment)
chain: MSDDKPFLCTAPGCGQRFTNEDHLAVHKHKHEMTLKFGPA
B5: ATF2(19–58) as used in the competitive fluorescence polarisation assay (domain or fragment)
chain: B4 chain

Tests used:
[1] = molecular target: T1, JNK1-dc20 (JNK1 with the C-terminal 20 residues truncated) (human, UniProt P45983 1-427); assay: FP
[2] = molecular target: T1, JNK1-dc20 (JNK1 with the C-terminal 20 …); assay: FP; EDTA
[3] = molecular target: T1, JNK1-dc20 (JNK1 with the C-terminal 20 …); assay: ITC; 2 mM EDTA
[4] = molecular target: T1, JNK1-dc20 (JNK1 with the C-terminal 20 …); assay: ITC

T1 sequence (P45983 other isoform, or with tags, fused parts or gaps): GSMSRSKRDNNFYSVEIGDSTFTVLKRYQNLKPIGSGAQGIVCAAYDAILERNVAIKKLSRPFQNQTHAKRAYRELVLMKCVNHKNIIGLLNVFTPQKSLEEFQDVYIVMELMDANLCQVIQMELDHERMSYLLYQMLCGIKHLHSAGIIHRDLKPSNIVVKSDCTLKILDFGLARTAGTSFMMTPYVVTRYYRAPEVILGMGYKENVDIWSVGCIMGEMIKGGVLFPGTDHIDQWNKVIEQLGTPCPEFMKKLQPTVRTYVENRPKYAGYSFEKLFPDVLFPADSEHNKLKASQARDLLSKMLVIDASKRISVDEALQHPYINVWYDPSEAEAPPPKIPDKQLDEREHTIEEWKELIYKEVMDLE

Binder | Kd [1] [µM] | Kd [2] [µM] | Kd [3] [µM] | Kd [4] [µM]
B1 | 3.5 | 53 | – | –
B2 | 3.8 | 4.9 | – | –
B3 | 55 | – | – | –
B4 | – | – | 48 | 5.1
B5 | 4.5 | – | – | –
